B1: HA-tagged Activin/Nodal type I receptor ALK4 [not stated] / Myc-tagged mouse Fscn1 [mouse] (parent)
chain 1: not shown
chain 2: SGPRGVQALLCACTSCLQANYTCETDGACMVSIFNLDGMEHHVRTCIPKVELVPAGKPFYCLSSEDLRNTHCCYTDYCNRIDLRVPSGHLKEPEHPSMWGPVELVGIIAGPVFLLFLIIIIVFLVINYHQRVYHNRQRLDMEDPSCEMCLSKDKTLQDLVYDLSTSGSGSGLPLFVQRTVARTIVLQEIIGKGRFGEVWRGRWRGGDVAVKIFSSREERSWFREAEIYQTVMLRHENILGFIAADNKDNGTWTQLWLVSDYHEHGSLFDYLNRYTVTIEGMIKLALSAASGLAHLHMEIVGTQGKPGIAHRDLKSKNILVKKNGMCAIADLGLAVRHDAVTDTIDIAPNQRVGTKRYMAPEVLDETINMKHFDSFKCADIYALGLVYWEIARRCNSGGVHEEYQLPYYDLVPSDPSIEEMRKVVCDQKLRPNIPNWWQSYEALRVMGKMMRECWYANGAARLTALRIKKTLSQLSVQEDVKI
B2: HA-tagged TGF-β type I receptor ALK5 [not stated] / Myc-tagged mouse Fscn1 [mouse] (parent)
chain 1: not shown
chain 2: LQCFCHLCTKDNFTCVTDGLCFVSVTETTDKVIHNSMCIAEIDLIPRDRPFVCAPSSKTGSVTTTYCCNQDHCNKIELPTTVKSSPGLGPVELAAVIAGPVCFVCISLMLMVYICHNRTVIHHRVPNEEDPSLDRPFISEGTTLKDLIYDMTTSGSGSGLPLLVQRTIARTIVLQESIGKGRFGEVWRGKWRGEEVAVKIFSSREERSWFREAEIYQTVMLRHENILGFIAADNKDNGTWTQLWLVSDYHEHGSLFDYLNRYTVTVEGMIKLALSTASGLAHLHMEIVGTQGKPAIAHRDLKSKNILVKKNGTCCIADLGLAVRHDSATDTIDIAPNHRVGTKRYMAPEVLDDSINMKHFESFKRADIYAMGLVFWEIARRCSIGGIHEDYQLPYYDLVPSDPSVEEMRKVVCEQKLRPNIPNRWQSCEALRVMAKIMRECWYANGAARLTALRIKKTLSQLSQQEGIKM

Variants of: B1
Assay: co-immunoprecipitation (IP anti-Myc, IB anti-HA) with band quantification
Details: HEK293 cells, 60 mm dishes, CA-ALK4-HA 2 μg, Myc-mFscn1 1.5 μg, no TGF-β1 or Activin A in the CA lane

ratio to parent	Variant
2.34	chain 2 T183D

Variants of: B2
Assay: as above
Details: transfected cells in 60 mm dishes, ALK5 KR-HA 2 μg, Myc-mFscn1 1.5 μg

ratio to parent	Variant
0.56	chain 2 K199R

Same assay, conditions: HEK293 cells, 60 mm dishes, CA-ALK5-HA 2 μg, Myc-mFscn1 1.5 μg, no TGF-β1 or Activin A in the CA lane

ratio to parent	Variant
1.87	chain 2 T171D
